Measured values: the supplement of paper PMC9170038

Assays:
MS2 coat protein [1] = test: apparent KD of MS2 coat protein, switch ON state; designed switch direction (-1 OFF switch, 1 ON switch): -1; higher = weaker reporter binding; conditions: FMN input: 0 or 200 uM; Eterna round: R93 (includes R88 designs)
Method in brief: (§1)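 Binding of SNAP-549-labelled MS2 coat protein was measured on designed RNA switches transcribed on-chip from Illumina sequencing clusters. The protein rose in twofold steps from 0.7 or 1.5 nM to 3 µM, with 0.8–1.5 h per step early on and 10–20 min per step later, in 100 mM Tris-HCl pH 7.5, 80 mM KCl, 4 mM MgCl2, without or with constant ligand. Each design's apparent KD is the median of fits to its normalised cluster binding curves.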

MS2 coat protein [2] = test: apparent KD of MS2 coat protein, switch OFF state (with FMN for OFF switches, without FMN for ON switches); designed switch direction (-1 OFF switch, 1 ON switch): -1; higher = weaker reporter binding; conditions: FMN input: 0 or 200 uM; Eterna round: R93 (includes R88 designs)
Method in brief: as §1

Sequence | apparent KD of MS2 coat protein (MS2 coat protein [1]) | apparent KD of MS2 coat protein (MS2 coat protein [2])
AAAAAACAUGAGGAUCACCCAUGUGAGGAUAUGUACGAAAUAAAAUAAAAAUAAAAGUACAGAAGGCACAAAAA [Mat - Exclusion 1 - Eli mod - D4] | 40.2 nM | 46.6 nM
AACAAACAUGAGGAUCACCCAUGUGAGGAUAUCGAAACAACAAACAACAAACAACAAACGAGAAGGCGCAACAA [e1-2] | 18.8 nM | 17.3 nM
AGCUAGUCAGGAUAUACAAAAAUGACAGAAGACGUAAGGGAACAUGAGGAUCACCCAUGUAGAAGGGACUAGCA [Diamond 43] | 61.5 nM | 184 nM
AAAAAGGUAGGAUAUACAUGAGGAUCACCCAUGUGAAAGAAAAAUAAGAAAAGAAAGAGUAGAAGGACCAAAAA [JL JSci Mod] | 31 nM | 30.6 nM
ACAAACCUAGGAUAUACAUGAGGAUCACCCAUGUACAAAGGCGUAGGCGACAAAAGAGGUAGAAGGAGGAAAGG [Disoed] | 21.9 nM | 22.9 nM
AAAAAACAUGAGGAUCACCCAUGUCAGGAUAUCGAAAGAAAAAAAAAGAAAGAAAAAACGAGAAGGGACAAAAA [Amethyst 29] | 20.1 nM | 33.1 nM
AAACAACAUGAGGAUCACCCAUGUUAGGAUAUGAACGAAAAUAAAUAAAAAUAAAAGUUCAGAAGGGACAAAAA [66%, Wbt, 20] | 23 nM | 28.2 nM
CUCUUGUCAGGAUAUUCAAGAAAAGAAGAGAAAGAAAAGAAGAAGAAGGGACAUGAGGAUCACCCAUGUAAGAA [EteRNA is fun!] | 52.4 nM | 67.2 nM
AAGAACGUAGGAUAUACAAAAUAAAAGAAAAGAAAGAAAGAACAUGAGGAUCACCCAUGUAGAAGGGCGAAGAA [Sekhemresewadjtawy Sobekhotep III] | 49.5 nM | 39.6 nM
GAAAAACAUGAGGAUCACCCAUGUCAGGAUAUGCAGAAAAAGAAAAAAAGAAAAGAAAGUAGAAGGGACAAAAG [Mat - Same state - Mayanna Mod - D106] | 29.4 nM | 28.6 nM
GGUUGGCGAGGAUAUACAUGAGGAUCACCCAUGUGAGAGAAAAAAGUGUGAAAGAAAAGUAGAAGGCGCUGACG [salish99-ex3-54] | 31 nM | 13 nM
CUCUAGUGAGGAUAUGGAAGAAAAGAAAAGAAAGAAAAGAACCAGAAGGCACAUGAGGAUCACCCAUGUAAGAA [EteRNA is fun!] | 47.7 nM | 66 nM
AACAUACAUGAGGAUCACCCAUGUUAGGAUAUGCCGGGUUAGAGCCAACUAAAAAACCGUAGAAGGGACGAAAA [Bilbo Confounded 10 - Jieux - Exclusion 1] | 30.7 nM | 28.2 nM
GGGUAACAUGAGGAUCACCCAUGUGAGGAUAUCCUAGGGAUGGAAGCCAGGCCAAAAAGGAGAAGGUACUAAAG [Janelle Amethyst 18 Mod 17 - Jieux - Exclusion 1] | 54.2 nM | 72.4 nM
AAAAAGUCAGGAUAUGUGAAAAAAAAAAAAAAAAAAAAAAAACAGAAGGGACAUGAGGAUCACCCAUGUAAAAA [water's exclusion 4 2nd] | 60 nM | 46.4 nM
GAAAAGUCAGGAUAUGUGGAAAAAAUAAAAAAAAUAAAAACACAGAAGGGACAUGAGGAUCACCCAUGUAAAAA [Mat - Exclusion 4 - Mayanna - D140] | 68.3 nM | 39 nM
GUGUACAGAGGAUAUACAUGAGCAUGGAAACAUGCAAGAUCACAUGAGGAUCACCCAUGUAGAAGGCUGUACAC [Ex2: 733] | 50.3 nM | 30.8 nM

Sequence | apparent KD of MS2 coat protein (MS2 coat protein [1]) | apparent KD of MS2 coat protein (MS2 coat protein [2])
AAAUAGUUAGGAUAUACAUGAGGAUCACCCAUGUGGACUUAUGGAGAAUAGUUUAAUGGUAGAAGGGACUAAAA [EX2 Malc#25] | 52.8 nM | 36.5 nM
GUUAUGUGAGGAUAUAUGUAGGAAACUACAUUAAGGGUAUCACAUGAGGAUCACCCAUGUAGAAGGCGCGUAGC [Ex2Try2_Neo] | 283 nM | 256 nM
AAAAAACAUGAGGAUCACCCAUGUGAGGAUAUGCUAUGGAAAUAAAAAAUAAAACAUAGCAGAAGGCACACCAA [Mat - Exclusion 1 - Eli mod - D44] | 31 nM | 42.9 nM
CUCAAGUGAGGAUAUACAAAAAGUAAAUAAGUAAAACAAAAGUAGAAGGCACAUGAGGAUCACCCAUGUAAAUA [JR_Exc004_Sub301] | 45.5 nM | 63.1 nM
GGUUGGCGAGGAUAUACAUGAGGAUCACCCAUGUGAGAGAAAAAAGUGAGGAGGAGAAGUAGAAGGCGCUGACG [salish99-ex3-17] | 18.9 nM | 3.7 nM
AAAGGUACAGGAUAUGCGUGGAAAAAGUGUAUUCAAAAAAAACAUGAGGAUCACCCAUGUAGAAGGGUACCAAA [MS2 Riboswitches On Chip Exclusion 2 wbt1] | 69.7 nM | 253 nM
AGCAAACAUGAGGAUCACCCAUGUCAGGAUAUGAACGAAAUAAAUAAAAAAUAAAAGUUCAGAAGGGACGAGCA [Mat - Exclusion 1 - Eli mod - D25] | 32.4 nM | 42.9 nM
GGUUGGCAAGGAUAUACAUGAGGAUCACCCAUGUGAGAGAAAAAAGUGAGAAAGAAAAGUAGAAGGUGUUGACG [salish99-ex3-75] | 26.8 nM | 53 nM
AACUAACAUGAGGAUCACCCAUGUCAGGAUAUGCAUCGAUCGAUCGAUCGAUCGAUCAGCAGAAGGGACAAAAA [Amethyst 92] | 22.3 nM | 37 nM
GGUUGAGAAGGAUAUACAUGAGGAUCACCCAUGUGAGAGAAAAAAGUGAGAAAGAAAAGUAGAAGGUCUUGACG [salish99-ex3-63] | 29 nM | 95.9 nM
GGUUUGCUAGGAUAUACAUGAGGAUCACCCAUGUGAGAGAAAAAAGUGAGAAAGAAAAGUAGAAGGAGCGGACG [salish99-ex3-122] | 68.2 nM | 66.4 nM
GCUUGCGAAGGAUAUACAUGAGGAUCACCCAUGUGAGAGAAAAAAGUGAGAAAGAAAAGUAGAAGGUCGUGAGG [salish99-ex3-95] | 28.3 nM | 72.8 nM
AAGAAGGUAGGAUAUACAAAAUAAAAGAAAAGAAAGAAAGAACAUGAGGAUCACCCAUGUAGAAGGGCCAAGAA [Khendjer] | 84.2 nM | 35.3 nM
AAGAAGUGAGGAUAUCGAAGACAGACGAAAAGUCUGUCAAGCGAGAAGGCACAUGAGGAUCACCCAUGUGGAAG [Mat - Exaclusion 4 - Eli mod - D80] | 31.8 nM | 33.4 nM
AAGGAGUAAGGAUAUCGGAAAGGACACGAAAGUGACAAAGACGAGAAGGUACAUGAGGAUCACCCAUGUAAAAA [milkweed 23] | 24.9 nM | 14.5 nM
GAAAGGGCAGGAUAUGCAGAGAGAGAGAGAGAAAAAAAAAAACAUGAGGAUCACCCAUGUAGAAGGGCCGAAAG [salish99-ex2-05] | 42.4 nM | 32.2 nM
AAGAAGACAGGAUAUACUAAAGAAAUGAAAAGAAAGAAAGAACAUGAGGAUCACCCAUGUAGAAGGGUCAAGAA [Sewahenre Senebmiu] | 66.2 nM | 45.1 nM
